Patent US20250186597A1, “TARGETED IMMUNE ACTIVATION WITH IL-18 IMMUNOCYTOKINES” (BRIGHT PEAK THERAPEUTICS AG, priority 2023, published 2025)

T1: human IL-18BP (Homo sapiens, UniProt O95998)
T1 construct: His
T1 sequence (O95998 31-194): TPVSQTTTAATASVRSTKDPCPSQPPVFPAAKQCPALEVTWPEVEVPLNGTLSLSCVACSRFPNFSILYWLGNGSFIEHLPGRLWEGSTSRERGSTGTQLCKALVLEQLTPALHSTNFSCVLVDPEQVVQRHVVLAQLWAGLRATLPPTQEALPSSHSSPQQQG


System: NK-92 cells
Assay: IFNγ induction cellular assay in NK-92 cells (Example 4, used in Example 22C)
Assay type: cell-based, human
Details: IFNg stimulation in NK92 cells
Procedure: The ability of immunocytokines and IL-18 polypeptides provided herein are assessed for ability to induce IFN[…] in a cellular assay according to the protocol below.
The NK cell line NK-92 derived from a patient with lymphoma (ATCC® CRL-2407™) is cultured in aMEM medium supplemented with 20% FCS, Glutamax, 25 µM B-mercaptoethanol, and 100 IU/mL of recombinant human IL-2.
On the day of experiment, cells are harvested and washed with aMEM medium without IL-2 and containing 1 ng/mL of recombinant human IL-12. After counting, cells are seeded at 100,000 cells/well in a 384 well titer plate and incubated at 37° C./5% CO2. Sixteen 4-fold serial dilutions of IL-18 analytes are prepared in aMEM medium, and 1 ng/mL of IL-12 were added to the NK-92 cells. Final IL-18 analyte concentrations range from 56 nM to 5×10^−5 pM.
After incubating the cells for 16-20 hr at 37° C./5% CO2, 5 μL of supernatant is carefully transferred to a 384 microwell OptiPlate. IFNγ levels are measured using a human IFNγ AlphaLISA Assay Kit. Briefly, 10 μL of 2.5× AlphaLISA Anti-IFNγ acceptor beads and biotinylated antibody anti-IFNγ mix are added to the 5 μL of NK-92 supernatants. The mixtures are incubated for 1 hr at room temperature with shaking. Under subdued light, 2.5 μL of 2× streptavidin (SA) donor beads are pipetted into each well, and the wells are incubated for 30 min at room temperature with shaking. AlphaLISA signals are then measured on an EnSpire™ plate reader using 680 nm and 615 nm as excitation and emission wavelengths, respectively. Half maximal effective concentrations (EC50) are calculated based on a variable slope and four parameter analysis using GraphPad PRISM software.
The experiments described in Example 4 for determination of IFNg stimulation in NK92 cells (and inhibition by IL-18 BP) were performed substantially as described on IL-18 polypeptides in order to assess their activities and their suitability for incorporation into immunocytokine compositions. It is expected that the IL-18 polypeptides provided below would behave analagously to C086 (SEQ ID NO: 30) when incorporated into an immunocytokine composition as those otherwise provided herein.

EC50 [nM] | Molecule
> 1000 | 44 (protein) YAGKLKSKLSVIRNLNDQVLFIDQGNRPLFEDMTDSDCRDNAPRTIFIISMYADAQPRGMAVTISVKCEKISTLSCENKIISFKEMNPPDNIKDTKSDIIFFQRSVPGHDNKMQFESSSYEGYFLACEKERDLFKLILKKEDELGDRSIMFTVQNED
30 | 45 (protein) YFGKLKSKLSVIRNLNDQVLFIDQGNRPLFEDMTDSDCRDNAPRTIFIISMYAAAQPRGMAVTISVKCEKISTLSCENKIISFKEMNPPDNIKDTKSDIIFFQRSVPGHDNKMQFESSSYEGYFLACEKERDLFKLILKKEDELGDRSIMFTVQNED

Molecular target: T1, human IL-18BP
Assay: IL-18BP binding alphaLISA assay (Example 4, used in Example 22B)
Details: IL-18BP AlphaLISA
Procedure: A human IL-18BP AlphaLISA Assay Kit is used to determine the binding affinity of each immunocytokine and IL-18 variant for IL-18BP, which detected the presence of free form IL-18BP.
Sixteen three-fold serial dilutions of IL-18 analytes are prepared in aMEM medium supplemented with 20% FCS, Glutamax, and 25 µM β-mercaptoethanol in the presence of 5 ng/mL of His-tagged human IL-18BP. Final IL-18 analytes concentration range from 2778 nM to […].
After 1 hr incubation at room temperature, free IL-18BP levels are measured using a […]. In a 384 well OPTIplate, 5 μL of 5× Anti-IL-18BP acceptor beads are added to 7.5 μL of an IL-18/IL-18BP mix. After 30 min incubation at room temperature with shaking, 5 μL of biotinylated Anti-IL-18BP antibodies are added to each well. The plate is incubated further for 1 hr at room temperature. Under subdued light, 12.5 μL of 2× streptavidin (SA) donor beads are pipetted into each well, and the wells are incubated with shaking for an additional 30 min at room temperature. The AlphaLisa signal is then measured on an Enspire plate reader with 680 and 615 nm as excitation and emission wavelengths, respectively. The dissociation constant (KD) is calculated based on a variable slope, four parameter analysis using GraphPad PRISM software.
An IL-18 binding protein AiphaLISA experiment substantially as described in Example 4 was performed on IL-18 polypeptide which can be incorporated into immunocytokine compositions as provided herein to assess ability to bind to IL-181BP. It is expected that the IL-18 polypeptides provided below would behave analogously to C086 (SEQ ID NO: 30) when incorporated into an immunocytokine composition as those otherwise provided herein.

Kd [nM] | Molecule
> 2800 | SEQ ID NO: 71: IL-18 polypeptide: N-terminal G, E6K, V11I, C38A, K53A, T63A, C76A, C127A (protein, N-terminal G, IL-18 polypeptide: N-terminal G, E6K, V11I, C38A, K53A, T63A, C76A, C127A) GYFGKLKSKLSIIRNLNDQVLFIDQGNRPLFEDMTDSDARDNAPRTIFIISMYADSQPRGMAVAISVKCEKISTLSAENKIISFKEMNPPDNIKDTKSDIIFFQRSVPGHDNKMQFESSSYEGYFLAAEKERDLFKLILKKEDELGDRSIMFTVQNED
> 2800 | SEQ ID NO: 70: IL-18 polypeptide: N-terminal G, E6K, V11I, C38A, M51G, K53A, T63A, C76A, C127A (protein, N-terminal G, IL-18 polypeptide: N-terminal G, E6K, V11I, C38A, M51G, K53A, T63A, C76A, C127A) GYFGKLKSKLSIIRNLNDQVLFIDQGNRPLFEDMTDSDARDNAPRTIFIISGYADSQPRGMAVAISVKCEKISTLSAENKIISFKEMNPPDNIKDTKSDIIFFQRSVPGHDNKMQFESSSYEGYFLAAEKERDLFKLILKKEDELGDRSIMFTVQNED
> 2800 | SEQ ID NO: 72: IL-18 polypeptide: N-terminal 4xG, E6K, V11I, C38A, K53A, T63A, C76A, C127A (protein, N-terminal 4xG, IL-18 polypeptide: N-terminal 4xG, E6K, V11I, C38A, K53A, T63A, C76A, C127A) GGGGYFGKLKSKLSIIRNLNDQVLFIDQGNRPLFEDMTDSDARDNAPRTIFIISMYADSQPRGMAVAISVKCEKISTLSAENKIISFKEMNPPDNIKDTKSDIIFFQRSVPGHDNKMQFESSSYEGYFLAAEKERDLFKLILKKEDELGDRSIMFTVQNED
> 1000 | 44 (protein) YAGKLKSKLSVIRNLNDQVLFIDQGNRPLFEDMTDSDCRDNAPRTIFIISMYADAQPRGMAVTISVKCEKISTLSCENKIISFKEMNPPDNIKDTKSDIIFFQRSVPGHDNKMQFESSSYEGYFLACEKERDLFKLILKKEDELGDRSIMFTVQNED
5.46 | C184: IL-18 polypeptide: E6R, V11I, C38A, K53A, T63A, C76A, C127A (protein) YFGKLRSKLSIIRNLNDQVLFIDQGNRPLFEDMTDSDARDNAPRTIFIISMYADSQPRGMAVAISVKCEKISTLSAENKIISFKEMNPPDNIKDTKSDIIFFQRSVPGHDNKMQFESSSYEGYFLAAEKERDLFKLILKKEDELGDRSIMFTVQNED
2.25 | C142: IL-18 polypeptide: Y1M, E6K, V11I, C38A, K53A, T63A, C76A, C127A (protein) MFGKLKSKLSIIRNLNDQVLFIDQGNRPLFEDMTDSDARDNAPRTIFIISMYADSQPRGMAVAISVKCEKISTLSAENKIISFKEMNPPDNIKDTKSDIIFFQRSVPGHDNKMQFESSSYEGYFLAAEKERDLFKLILKKEDELGDRSIMFTVQNED
> 1000 | 45 (protein) YFGKLKSKLSVIRNLNDQVLFIDQGNRPLFEDMTDSDCRDNAPRTIFIISMYAAAQPRGMAVTISVKCEKISTLSCENKIISFKEMNPPDNIKDTKSDIIFFQRSVPGHDNKMQFESSSYEGYFLACEKERDLFKLILKKEDELGDRSIMFTVQNED
25.8 | C176: IL-18 polypeptide: E6K, V11I, C38A, I49M, K53A, T63A, C76A, C127A (protein) YFGKLKSKLSIIRNLNDQVLFIDQGNRPLFEDMTDSDARDNAPRTIFIMSMYADSQPRGMAVAISVKCEKISTLSAENKIISFKEMNPPDNIKDTKSDIIFFQRSVPGHDNKMQFESSSYEGYFLAAEKERDLFKLILKKEDELGDRSIMFTVQNED
0.14 | C174: IL-18 polypeptide: K8L, E6K, V11I, C38A, K53A, T63A, C76A, C127A (protein) YFGKLKSLLSIIRNLNDQVLFIDQGNRPLFEDMTDSDARDNAPRTIFIISMYADSQPRGMAVAISVKCEKISTLSAENKIISFKEMNPPDNIKDTKSDIIFFQRSVPGHDNKMQFESSSYEGYFLAAEKERDLFKLILKKEDELGDRSIMFTVQNED
> 2800 | C177: IL-18 polypeptide: E6K, V11I, C38A, I49R, K53A, T63A, C76A, C127A (protein) YFGKLKSKLSIIRNLNDQVLFIDQGNRPLFEDMTDSDARDNAPRTIFIRSMYADSQPRGMAVAISVKCEKISTLSAENKIISFKEMNPPDNIKDTKSDIIFFQRSVPGHDNKMQFESSSYEGYFLAAEKERDLFKLILKKEDELGDRSIMFTVQNED
> 2800 | C178: IL-18 polypeptide: E6K, V11I, C38A, K53A, T63A, C76A, Q103R, C127A (protein) YFGKLKSKLSIIRNLNDQVLFIDQGNRPLFEDMTDSDARDNAPRTIFIISMYADSQPRGMAVAISVKCEKISTLSAENKIISFKEMNPPDNIKDTKSDIIFFRRSVPGHDNKMQFESSSYEGYFLAAEKERDLFKLILKKEDELGDRSIMFTVQNED
436 | 56 (protein) YFGKLKSKLSVIRNLNDQVLFIDQGNRPLFEDMTDSDSRDNAPRTIFIISMYADSQPRGMAVTISVKCEKISTLSSENKIISFKEMNPPDNIKDTKSDIIFFQRSVPGHDNKMQFESSSYEGYFLASEKERDLFKLILKKEDELGDRSIMFTVQNED
> 2800 | C179: IL-18 polypeptide: E6K, K8E, V11I, C38A, K53A, T63A, C76A, Q103R, C127A (protein) YFGKLKSELSIIRNLNDQVLFIDQGNRPLFEDMTDSDARDNAPRTIFIISMYADSQPRGMAVAISVKCEKISTLSAENKIISFKEMNPPDNIKDTKSDIIFFRRSVPGHDNKMQFESSSYEGYFLAAEKERDLFKLILKKEDELGDRSIMFTVQNED
> 2800 | SEQ ID NO: 69: IL-18 polypeptide: E6K, V11I, C38A, M51G, K53A, T63A, C76A, C127A (protein) YFGKLKSKLSIIRNLNDQVLFIDQGNRPLFEDMTDSDARDNAPRTIFIISGYADSQPRGMAVAISVKCEKISTLSAENKIISFKEMNPPDNIKDTKSDIIFFQRSVPGHDNKMQFESSSYEGYFLAAEKERDLFKLILKKEDELGDRSIMFTVQNED
> 2800 | C182: IL-18 polypeptide: E6K, V11I, C38A, K53A, T63A, C76A, C127A, V153Y (protein) YFGKLKSKLSIIRNLNDQVLFIDQGNRPLFEDMTDSDARDNAPRTIFIISMYADSQPRGMAVAISVKCEKISTLSAENKIISFKEMNPPDNIKDTKSDIIFFQRSVPGHDNKMQFESSSYEGYFLAAEKERDLFKLILKKEDELGDRSIMFTYQNED
> 2800 | C181: IL-18 polypeptide: E6K, V11I, C38A, K53A, T63A, C76A, C127A, V153E (protein) YFGKLKSKLSIIRNLNDQVLFIDQGNRPLFEDMTDSDARDNAPRTIFIISMYADSQPRGMAVAISVKCEKISTLSAENKIISFKEMNPPDNIKDTKSDIIFFQRSVPGHDNKMQFESSSYEGYFLAAEKERDLFKLILKKEDELGDRSIMFTEQNED
